From patent US20240402174A1 (Takeda / Millennium, published 2024)
Where a chain is given by its changes, count along the chain named.

How the values were obtained:
GII.4/Yerseke VLP = biological target: T1, GII.4/Yerseke VLP (norovirus Hu/GII.4/Yerseke38/2006/NL, UniProt P54635 1-539); assay: multiplex microsphere immunoassay
T1 construct: also called Hu/GII.4/Yerseke38/2006/NL
T1 chain: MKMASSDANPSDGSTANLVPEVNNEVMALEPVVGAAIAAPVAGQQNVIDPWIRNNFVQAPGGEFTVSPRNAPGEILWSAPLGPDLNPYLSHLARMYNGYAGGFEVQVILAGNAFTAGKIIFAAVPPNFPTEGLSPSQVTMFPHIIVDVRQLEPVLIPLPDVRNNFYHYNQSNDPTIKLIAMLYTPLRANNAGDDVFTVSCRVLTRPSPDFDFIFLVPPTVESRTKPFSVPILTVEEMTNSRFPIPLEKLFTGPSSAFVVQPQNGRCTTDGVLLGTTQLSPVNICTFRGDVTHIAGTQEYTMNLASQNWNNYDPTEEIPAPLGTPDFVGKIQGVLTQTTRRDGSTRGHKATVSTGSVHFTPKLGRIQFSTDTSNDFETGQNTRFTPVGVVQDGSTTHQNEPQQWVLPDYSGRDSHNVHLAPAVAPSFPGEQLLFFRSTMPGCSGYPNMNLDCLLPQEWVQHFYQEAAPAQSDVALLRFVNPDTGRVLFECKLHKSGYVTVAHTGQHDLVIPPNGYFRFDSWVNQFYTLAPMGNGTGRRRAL

GII.17/1978 VLP = biological target: T2, GII.17/1978 VLP (norovirus Hu/GII.17/C142/GF/1978); assay: multiplex microsphere immunoassay
T2 construct: also called Hu/GII.17/C142/GF/1978
T2 chain: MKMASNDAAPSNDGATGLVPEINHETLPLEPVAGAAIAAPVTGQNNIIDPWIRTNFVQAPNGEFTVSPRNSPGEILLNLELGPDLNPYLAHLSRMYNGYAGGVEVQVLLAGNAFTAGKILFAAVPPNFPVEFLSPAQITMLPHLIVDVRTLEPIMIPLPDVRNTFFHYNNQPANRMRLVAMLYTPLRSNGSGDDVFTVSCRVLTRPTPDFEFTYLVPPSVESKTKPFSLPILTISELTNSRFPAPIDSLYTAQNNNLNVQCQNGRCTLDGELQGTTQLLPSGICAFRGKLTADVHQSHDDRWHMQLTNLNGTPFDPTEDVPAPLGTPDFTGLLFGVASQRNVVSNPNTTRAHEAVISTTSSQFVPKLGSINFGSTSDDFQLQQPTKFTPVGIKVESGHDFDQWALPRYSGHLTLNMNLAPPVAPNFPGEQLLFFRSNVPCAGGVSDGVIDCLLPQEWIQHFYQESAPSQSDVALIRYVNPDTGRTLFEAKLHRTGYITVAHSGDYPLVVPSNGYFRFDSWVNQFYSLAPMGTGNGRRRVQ

GII.1 VLP = biological target: T3, GII.1 VLP (norovirus Hu/GII.1/Ascension208/2010/USA); assay: multiplex microsphere immunoassay
T3 chain: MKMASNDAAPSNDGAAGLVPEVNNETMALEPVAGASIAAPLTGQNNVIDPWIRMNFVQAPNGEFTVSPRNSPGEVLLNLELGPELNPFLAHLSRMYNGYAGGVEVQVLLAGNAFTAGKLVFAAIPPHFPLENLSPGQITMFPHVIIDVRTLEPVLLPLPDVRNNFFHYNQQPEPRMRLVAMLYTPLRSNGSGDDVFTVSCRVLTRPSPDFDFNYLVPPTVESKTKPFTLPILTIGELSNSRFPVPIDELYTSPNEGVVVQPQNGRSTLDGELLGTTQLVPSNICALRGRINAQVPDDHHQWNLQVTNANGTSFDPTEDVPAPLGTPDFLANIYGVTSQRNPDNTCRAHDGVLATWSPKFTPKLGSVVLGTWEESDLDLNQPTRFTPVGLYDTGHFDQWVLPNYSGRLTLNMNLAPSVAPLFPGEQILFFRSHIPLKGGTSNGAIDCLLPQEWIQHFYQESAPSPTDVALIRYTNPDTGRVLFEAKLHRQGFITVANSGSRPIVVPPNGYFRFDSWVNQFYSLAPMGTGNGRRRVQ

GII.4/Consensus VLP = biological target: T4, GII.4/Consensus VLP (norovirus GII.4 consensus sequence, UniProt P54635 1-539); assay: PGM blockade assay, serially diluted mAb
T4 chain: T1 chain with S228T, S255G, R340G, R364S, I365V, R382K, S425T
Procedure: (§1) Plates were washed 3 times with PBST before use. […] The mixture was transferred to the PGM-coated plates including VLP-only controls and incubation carried out for 1 h at 22° C. or 37° C. Following 3 washes with PBST, detection antibody specific for the corresponding VLP was added and the plates were incubated at room temperature for 1 h and then washed 3 times with PBST. […] Following 3 washes, enzyme substrate (ABTS, KPL) was added and allowed to react for 12 min at room temperature. ABTS Peroxidase Stop Solution (KPL) was then added and plates were read at a wavelength of 450 nm in a Molecular Devices plate reader using SoftMax Pro Software (Molecular Devices, Downingtown, PA, USA) to obtain the Optical Density (GD) of each well.
(§2) The following, day corresponding dilutions incubated with VLPs were transferred to the PGM-coated plates. The OD data was curve fit and blocking titers were calculated as the supernatant dilution interpolated at 1/2 the maximum OD for the plate. The blocking titers represent the supernatant dilution that produces a 50% reduction in VLP binding to PGM. The maximum OD for the plate was calculated from the VLP only control.

GII.4/Den Haag VLP = biological target: T5, GII.4/Den Haag VLP (norovirus Hu/GII.4/DenHaag89/2006/NL, UniProt P54635 1-539); assay: PGM blockade assay, serially diluted mAb
T5 construct: also called Hu/GII.4/DenHaag89/2006/NL
T5 chain: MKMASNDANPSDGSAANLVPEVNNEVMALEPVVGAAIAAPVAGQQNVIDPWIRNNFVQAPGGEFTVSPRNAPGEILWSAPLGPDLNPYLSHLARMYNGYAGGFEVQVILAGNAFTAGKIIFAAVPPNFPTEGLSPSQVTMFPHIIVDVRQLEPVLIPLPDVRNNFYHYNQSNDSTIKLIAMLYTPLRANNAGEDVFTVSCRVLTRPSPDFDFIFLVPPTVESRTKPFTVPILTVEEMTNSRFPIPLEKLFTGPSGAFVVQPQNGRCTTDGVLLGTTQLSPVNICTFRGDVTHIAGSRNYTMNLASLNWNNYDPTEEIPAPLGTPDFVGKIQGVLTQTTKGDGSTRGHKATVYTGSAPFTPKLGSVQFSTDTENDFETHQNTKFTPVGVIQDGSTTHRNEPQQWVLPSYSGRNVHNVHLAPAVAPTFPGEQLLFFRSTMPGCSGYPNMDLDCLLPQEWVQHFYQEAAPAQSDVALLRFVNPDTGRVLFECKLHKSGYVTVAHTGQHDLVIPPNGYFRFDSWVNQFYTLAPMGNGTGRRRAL
Procedure: as §1, §2

B1: human mAb 1431 (antibody, V domains shown)
VH: QVQLVQSGGGLVQPGGSLRLSCAASGFAFSNHGMHWVRQAPGKGLEWLSYISGSTGAIHYANSVKGRFTISRDNARNSLDLQMNSLGDEDTAVYYCARDGPRPDGTGYAGPSNDYWGQGTLVSVSS
VL: EIVLTQSPASLSLSPGERATLSCKASRSISIYLAWYQQKPGQAPRLLIYDASYRAIGIPARFSGSGSGTDFTLTISNLEPEDFAVYYCQHRSSWPALTFGGGTKVEI
notes: also called A1431
- EC50 (GII.4/Yerseke VLP): 7 ng/mL
- binding result (GII.17/1978 VLP): no binding
- binding result (GII.1 VLP): no binding
- blocking titer (GII.4/Consensus VLP): 139000
- blocking titer (GII.4/Den Haag VLP): 5720

B2: human mAb 1227 (antibody, V domains shown)
VH: QVQLVQSGGGMVQPGGSLSLSCAASGFTLSNYAMTWVRQAPGKGLEWVSSIGGSGGTTYYADSVKGRFTISRDSSMNTLYLQMSNLRAGDTAVYYCAKDKTRTLRLGYSGMDVWGQGTTVTVSS
VL: DIRLTQSPSSLSASVGDRVTITCRASQSISSYLNWYQQKPGKAPDLLIYGASSLQSGVPSRFSGSGSGTDFTLTISSLQPEDFGNYYCQQSFSTPRTFGQGTKVEL
notes: also called A1227
- EC50 (GII.4/Yerseke VLP): 2 ng/mL
- blocking titer (GII.4/Consensus VLP): 447
- blocking titer (GII.4/Den Haag VLP): 162
